In the DeepSol protein solubility set:

Assay: soluble on expression in E. coli; label from the status in PepcDB or PDB records

Row | Sequence | soluble on expression in E. coli
1 | MGSDKIHHHHHHMSARLDAQIAFLKQADRLKSVERANVLLDLSRPENSAEHSWHLALWALVLSPFAAPDVDVDRAIRMLLLHDLVEIETGDHPIHEVTDWQAVERAERAAARKLFGLLPPDQAADFHTLWTEFDADETADARYAKMLDRCQPMFQVLCADTPRPDHVEVVRENLSSGRAAYLAEAFPEAHAHARALLERHPPVTGGFGDRLEFLAEADRLKTVLRASRLMDDSRFENSAEHSWHIMLYAWVLGEYAAAPVDIDRVLRMLLLHDLVEIDAGDNPIHGNVDHAAQEALEAAAAERLFGLLPPDQGAGLRAIWQEFETAQSADALFGKAVDRVQTPIANLENGGGSWVTYDVSLQQLVARVGTPVSRGAPGLWDWLFPQLSDCFTRLGLRL | not soluble
2 | MLTREDIFKHVKEKYGTSPDYPWEKYPNYASLRHTSNKKWYGLIMNVLPEKLGLDGHGEIDILNLKCPPEISDRLRNGENILPGYHMDKEHWISIVLERTDPEGEIYNLIEQSFHLTKLEHHHHHH | soluble
3 | GPGSMLRRQCVPLRVVAAGLRLNSSSSGPSKTNDGGIPNATGMDNAPGLYAEKPSSTYCEEKYPNKVEEVGSLKPPTYDVPHGRSDNIKTPEFNTSLGKFDQAPYFTGGPPAMRYHGYKRDPAVEGVDYRDVLPKTPIEDHHPHMEFLSVTGRREGSTFLLANAGVNWELKAAAMSLYRTILKSLPMIKHYYWLLVPLPAMKDKIRLRFLQNQHTKDPDAIRHLLHNGWMEFQESIMFRRPR | not soluble
4 | MYRIGELAKMAEVTPDTIRYYEKQQMMEHEVRTEGGFRLYTESDLQRLKFIRHARQLGFSLESIRELLSIRIDPEHHTCQESKGIVQERLQEVEARIAELQSMQRSLQRLNDACCGTAHSSVYCSILEALEQGASGVKSGC | not soluble
5 | MHHHHHHHHHGGPISKILVANRSEIAIRVFRAANELGIKTVAIWAEEDKLALHRFKADESYQVGRGPHLARDLGPIESYLSIDEVIRVAKLSGADAIHPGYGLLSESPEFVDACNKAGIIFIGPKADTMRQLGNKVAARNLAISVGVPVVPATEPLPDDMAEVAKMAAAIGYPVMLKASWGGGGRGMRVIRSEADLAKEVTEAKREAMAAFGKDEVYLEKLVERARHVESQILGDTHGNVVHLFERDCSVQRRNQKVVERAPAPYLSEAQRQELAAYSLKIAGATNYIGAGTVEYLMDADTGKFYFIEVNPRIQVEHTVTEVVTGIDIVKAQIHILDGAAIGTPQSGVPNQEDIRLNGHALQCRVTTEDPEHNFIPDYGRITAYRSASGFGIRLDGGTSYSGAIITRYYDPLLVKVTAWAPNPLEAISRMDRALREFRIRGVATNLTFLEAIIGHPKFRDNSYTTRFIDTTPELFQQVKRQDRATKLLTYLADVTVNGHPEAKDRPKPLENAARPVVPYANGNGVKDGTKQLLDTLGPKKFGEWMRNEKRVLLTDTTMRDGHQSLLATRMRTYDIARIAGTYSHALPNLLSLECWGGATFDVSMRFLTEDPWERLALIREGAPNLLLQMLLRGANGVGYTNYPDNVVKYFVRQAAKGGIDLFRVFDCLNWVENMRVSMDAIAEENKLCEAAICYTGDILNSARPKYDLKYYTNLAVELEKAGAHIIAVKDMAGLLKPAAAKVLFKALREATGLPIHFHTHDTSGIAAATVLAAVEAGVDAVDAAMDALSGNTSQPCLGSIVEALSGSERDPGLDPAWIRRISFYWEAVRNQYAAFESDLKGPASEVYLHEMPGGQFTNLKEQARSLGLETRWHQVAQAYADANQMFGDIVKVTPSSKVVGDMALMMVSQDLTVADVVSPDREVSFPESVVSMLKGDLGQPPSGWPEALQKKALKGEKPYTVRPGSLLKEADLDAERKVIEKKLEREVSDFEFASYLMYPKVFTDFALASDTYGPVSVLPTPAYFYGLADGEELFADIEKGKTLVIVNQAVSATDSQGMVTVFFELNGQPRRIKVPDRAHGATGAAVRRKAEPGNAAHVGAPMPGVISRVFVSSGQAVNAGDVLVSIEAMKMETAIHAEKDGTIAEVLVKAGDQIDAKDLLAVYGG | soluble
6 | MSLQDESPLLIITDSALVRDALVTHISETRRLLIADSHDVGMELALSFRPALILLDASSTDGEALALLRAFRSEPHLDDTFILVLSDEAAVLERLEASRAGADDFLRLPVDQAELTARVAVALRQARLSRRLRAYTRRIEEEMRLVADLQMRLLPAYTPYLASLRIDSFYQPSTEASGDYFDHFLLPGEDRLRVVIADASGHGARSAVLMTMVRTLFHASHAANTPLTDMLLEINTNLLDVVGNEPDFVTLFAADLDLRGNTLRYVNAGHCPALLRHPDGTTMRLSGTTPRLGFFGVRETERLVPFTPGTRLLLYTDGFHDCATASGRRLGIDRFLSLAEATMRRGGDVLSSLREDISTTFGEPPTWPDDVTALYIERKEEGHHHHHH | soluble
7 | LNKWMKELSKTTSLDPVKPVDVLLTENDITIKNIRDMNRLRPFGTDFSRPIFEMDDLSVSSVKAIGQQKNHLKLTLGESNIAALFWQNGHLEPELQDEQPINILGSVQINEWNGNQSPQ | not soluble
8 | MGSDKIHHHHHHMNDPESIFQRLDRLLARIEDTLPVRPQHADPAEYIALRWRKHGDTGYLQAINHPHTITLNELLNIEEQKQTLDRNTLQFVSGLPANNVLLTGARGTGKSSLIKALLNRYADRGLRMIEVDKLGLTDLPDIIEFIGQRPERFILYCDDLSFEADEPGYKALKVVLDGSISTASDNVLIYATSNRRHLIPEFMHENLATRHVDGEIHPGEATEEKISLSERFGLWLSFYPFDQEQYLEIVRHWLSQHGISRLSGPARQEALRWALARGSRNGRVARQFARDWAGQQKLAKTEPVRVDKE | not soluble
9 | MAKEINLTGEEVVALAAKYMNETDAAFVKKALDYATAAHFYQVRKSGEPYIVHPIQVAGILADLHLDAVTVACGFLHDVVEDTDITLDNIEFDFGKDVRDIVDGVTKLGKVEYKSHEEQLAENHRKMLMAMSKDIRVILVKLADRLHNMRTLKHLRKDKQERISRETMEIYAPLAHRLGISRIKWELEDLAFRYLNETEFYKISHMMNEKRREREALVDDIVTKIKSYTTEQGLFGDVYGRPKHIYSIYRKMRDKKKRFDQIFDLIAIRCVMETQSDVYAMVGYIHELWRPMPGRFKDYIAAPKANGYQSIHTTVYGPKGPIEIQIRTKEMHQVAEYGVAAHWAYKKGVRGKVNQAEQKVGMNWIKELVELQDASNGDAVDFVDSLEHHHHHH | soluble
10 | MAIGKKVSKKTPLLLAADSHKNAAKMPCFLLQAHRIANTVIAGWHGQRKRGNGENFWQFRPYVEGESITRIDWRRSARDGHTYLREHEWEKTQTVWIWPDQSASMHYCSCFSQTSKDNYAIILALTLATLLARSGENIAIPTLMPPTMAPNVVERMALALVNRHTENPFPDFSTITRFSHVIIMSDFLDSPEKIIQNLTVLSAKQITVHLIEVADPAEEHFPYAGHTEFFDPETKEKRILGKAENSREHYCKLYQARRQELTNFCTRQGWTYHVSKTDRPLTEVILRLANKIGISPSHNRRSL | not soluble
11 | GALVPRGSHMADPSLNNPVVIQATRLDASILPRNVFSKSYLLYVIAQGTDVGAIAGKANEAGQGAYDAQVKNDEQDVELADHEARIKQLRIDVDDHESRITANTKAITALNVRVTTAEGEIASLQTNVSALDGRVTTAENNISALQADYVSKTATTSQSLASPLNVTTSYSVGGKKVVGARQTGWTAATGTANKGVFDADLTFAVSDTYTQSEIQAIANALITERRRTKAMEDALRAHGLID | soluble
12 | MSLKGGYAVVDFKVPNERDNASTTKLEVNFPTDHPLASVMPQPVPGWKAEVTKAKPAKPLESHGKQITEVVTKVTWTADGKGVEPGYFQKFPVSIGALPEDADQLVFKAIQTYSNKEVVRWIEVPQEGQEEPETPAPVLKLSAAEDDAHGASEGHHHHHH | soluble
13 | GSCASCPNNCENGLCTNSCDFEDLLSNCESLKTSAGCKHELLKTKCQATCLCEDKIH | soluble
14 | MHSKMDCVSRSPLFSPLAPAVKAKLITVTHHRKFYQKGQLIRQPLDHQEGMLILDEGTAKIYALAANGKEKIIELLRSGDVVGQHWLFAPHENQGFIQATSDAWVCSIQYDDFQRLLGESASLSLAMINNFGNQLIEAEKNQLRRDLLDAKARLMAYLRDCAVESGQIEFELPLKKKELANILGITPETLSRQFKQLAAEGQIIVNKRQITIC | not soluble
15 | MGSSHHHHHHGKTIFVIVPTNEEQVAFLEALAKQDELNFDWQNPPTEPGQPVVILIPSDMVEWFLEMLKAKGIPFTVYVEEGGSENLYFQGGGGGGMPPPLPHRRATRACALVAAVALVLVLPTSRARTVGMRSMSAYTEAQQLHTRKFLDGFVQSMPDLHNIWTGDDFCAWKGVTCLRDGVSVSATNWVQLAVPPGRLPEVSSADVDVSQVFVTSISVRANGRNLSGTLPASWGLLQNLRKVRLESNSLTGSLPPEWSGLRSLRELYLSNNNLTGTLPASWGESMKSLAILSLDRNALAGTLPPEWGRMKSMQALVLESNQLSGTLPAEWRFMRAASTLMIGRNYLSGTLPHEWAEMSVMEWMDLHSNRLTGWLPAAWATMTLLNTLLLFDNGFTGTLPTEWARLEFLEELRMQDNVLVGTLPASWSAMVLMQVLDISENTLSGTLPVLWSSMQSLDTLSIRDNQLSGSLPIEWRTLPKIMHLHLEGNALCGCLPLNWTSRYVAVEVDEAVTSVNCATENACNDVNLDSISDKISSSCSSSTSPNGGRRR | not soluble
16 | MNRLPVDDVIPDLLTALEQRNAAVLQAPPGAGKTTRVPLALLDAPWLNGKRIIMLEPRRLAATNAARWMARSLGEEAGATVGYAIRFDRRVSARTRVEVVTEGILTRRLQSDPLLEGVGAVIFDEFHERSIHSDLALALCRDVQAGLREDLRIIVMSA | not soluble
17 | MRLAVLIDADNAKADAISDLLAEVSKFGVATVKRAYGDWTTTNLQGWKKQLHKYAIQPMQQFSYTRGKNSTDASMIIDGMDLLYTGNFDGFCIVSSDCDFTRLATRFREAGLSVYGFGEKKTPEPFVAACDRFIFTEILGKGETQEKPAATGKADESAASKELLKLLRKAVAAVSGEDGWASLSNLGSHISKIRPSFDSRNYGYSKLSTLVKNLDIFETRMVPSADKLHTDVFLRLKDGKLEHHHHHH | not soluble
18 | MKNFVRTTLLAATLAGVSFGAFATAVPNPPLPAQDPIVQHLKLTNDQITRIKKLHQQLETDVSQISMKGIKDGALIEVIKSGKWDDAAVKQQLAAFSNIEQQARYYRVKYYFDLSKVLTPEQRQQVQQDLAQALE | not soluble
19 | MMKPPSAIMETALYADDLDAAEAFYRDVFGLEMVLKLPGQLVFFKCGRQMLLLFDPQESSRADANNPIPRHGAVGQGHFCFYADDKAEVDEWKTRFEALEIPVEHYHRWPNGSYSVYIRDPAGNSVEVGEGKLWGFE | not soluble
20 | MGSDKIHHHHHHMIVLLREINRYCKEKATGKRIYAVPKLWIPGFFKKFDEKSGRCFVDPYELGAEITDWILNQSREWDYSQPLSFLKGEKTPDWIKRSVVYGSLPRTTAAYNHKGSGYYEENDVLGFREAGTFFKMMLLLPFVKSLGADAIYLLPVSRMSDLFKKGDAPSPYSVKNPMELDERYHDPLLEPFKVDEEFKAFVEACHILGIRVILDFIPRTAARDSDLIREHPDWFYWIKVEELADYTPPRAEELPFKVPDEDELEIIYNKENVKRHLKKFTLPPNLIDPQKWEKIKREEGNILELIVKEFGIITPPGFSDLINDPQPTWDDVTFLRLYLDHPEASKRFLDPNQPPYVLYDVIKASKFPGKEPNRELWEYLAGVIPHYQKKYGIDGARLDMGHALPKELLDLIIKNVKEYDPAFVMIAEELDMEKDKASKEAGYDVILGSSWYFAGRVEEIGKLPDIAEELVLPFLASVETPDTPRIATRKYASKMKKLAPFVTYFLPNSIPYVNTGQEIGEKQPMNLGLDTDPNLRKVLSPTDEFFGKLAFFDHYVLHWDSPDRGVLNFIKKLIKVRQQFLDFVLNGKFENLTTKDLVMYSYEKNGQKIVIAANVGKEPKEITGGRVWNGKWSDEEKVVLKPLEFALVVQE | not soluble
